Results taken from US20240285738A1 (IMMATICS BIOTECHNOLOGIES, published 2024).

Target: T1, HLA-A*02:01 (human)
T1 construct: MHC monomer first loaded with a UV-sensitive peptide that is cleaved by UV light and exchanged for the test peptide; captured on streptavidin plates and detected with anti-b2m; also called peptide-receptive MHC molecules; MHC class I
Test: UV peptide-exchange ELISA, exchange yield grade
Source text: Candidate peptides for T cell based therapies according to the present invention were further tested for their MHC binding capacity (affinity). The individual peptide-MHC complexes were produced by UV-ligand exchange, where a UV-sensitive peptide is cleaved upon UV-irradiation, and exchanged with the peptide of interest as analyzed. Only peptide candidates that can effectively bind and stabilize the peptide-receptive MHC molecules prevent dissociation of the MHC complexes. To determine the yield of the exchange reaction, an ELISA was performed based on the detection of the light chain (B2m) of stabilized MHC complexes. The assay was performed as generally described in Rodenko et al. (Rodenko et al., 2006).
96 well MAXISorp plates (NUNC) were coated over night with 2 μg/ml streptavidin in PBS at room temperature, washed 4× and blocked for 1 h at 37° C. in 2% BSA containing blocking buffer. Refolded HLA-A*02:01/MLA-001 monomers served as standards, covering the range of 15-500 ng/ml. Peptide-MHC monomers of the UV-exchange reaction were diluted 100 fold in blocking buffer. Samples were incubated for 1h at 37° C., washed four times, incubated with 2 μg/ml HRP conjugated anti-β2m for 1h at 37° C., washed again and detected with TMB solution that is stopped with […]. Absorption was measured at 450 nm. Candidate peptides that show a high exchange yield (preferably higher than 50%, most preferred higher than 75%) are generally preferred for a generation and production of antibodies or fragments thereof, and/or T cell receptors or fragments thereof, as they show sufficient avidity to the MHC molecules and prevent dissociation of the MHC complexes.

Binder | peptide exchange yield
FIMEGGAMVL | 50 to 75%
FILPSSLYL | ≥ 75%
LAIVPVNTL | 50 to 75%
